We go through three molecules from patent US11559589B2, “Compositions and methods for detection and modulation of T cell mediated immune responses against viral vectors utilized for gene therapy” (The Children's Hospital of Philadelphia, priority 2006, dated 2023).

The target in assay [1] is T1, AAV-2 capsid (AAV-p74 peptide) peptide on HLA-B*07:02 (human).
T1 peptide: VPQYGYLTL
The assay can be described thus: multimer staining.

Assay [2] concerns the target AAV-p74 peptide/HLA-B7 complexes on cell surface of JyA2B7 cells (UniProt P01889+P03135). The conditions noted are these: for minimum AAV-p74 peptide loading concentration stained: 0.5 μg multimer.
Excerpt: AAV-p74 peptide loaded HLA-B7-positive human lymphoblastoid cell line (JyA2B7) was used to determine whether AAV-a-scTCR can bind to AAV-p74 peptide/HLA-B7 complexes on cell surface.
Assay [3] has as its system lymph node cells and splenocytes from HLA-B*0702 transgenic mice. In words: AAV-scTCR multimer staining of cells from HLA-B*0702 transgenic mice after intravenous AAV vector. In kind it is cell-based. The text has this:
FIGS. 12A and 12B are a pair of histograms swing AAV-scTCR multimer staining of CD11c+CD19-cells collected from HLA B*0702 mice one week after intravenous infusion of 1E11 vector genomes (vg) of AAV.

The target in assay [4] is MHC molecules displaying the AAV peptide epitopes on Malme-3 fibroblasts (UniProt P01889+P03135). Here is the method: AAV-scTCR multimer was tested in vitro using a normal human fibroblast cell line positive for HLA-B*0702 (Malme-3 available from the ATCC repository). Cells were peptide loaded with AAV capsid epitopes at a concentration of 10 ug/ml for 2 hrs at 37° C. and then stained with the AAV-scTCR multimer (FIG. 10); alternatively, cells were transduced with an AAV vector at an MOI of 5×10^5 or 1×10^6 and stained 24 or 48 hours later (FIG. 11).
MHC molecules displaying the AAV peptide epitopes on Malme-3 fibroblasts, sequence (P61769 21-119): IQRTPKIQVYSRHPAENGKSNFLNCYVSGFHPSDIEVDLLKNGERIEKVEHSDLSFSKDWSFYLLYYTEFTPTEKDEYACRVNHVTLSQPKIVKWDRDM
MHC molecules displaying the AAV peptide epitopes on Malme-3 fibroblasts, sequence (P01889 25-362): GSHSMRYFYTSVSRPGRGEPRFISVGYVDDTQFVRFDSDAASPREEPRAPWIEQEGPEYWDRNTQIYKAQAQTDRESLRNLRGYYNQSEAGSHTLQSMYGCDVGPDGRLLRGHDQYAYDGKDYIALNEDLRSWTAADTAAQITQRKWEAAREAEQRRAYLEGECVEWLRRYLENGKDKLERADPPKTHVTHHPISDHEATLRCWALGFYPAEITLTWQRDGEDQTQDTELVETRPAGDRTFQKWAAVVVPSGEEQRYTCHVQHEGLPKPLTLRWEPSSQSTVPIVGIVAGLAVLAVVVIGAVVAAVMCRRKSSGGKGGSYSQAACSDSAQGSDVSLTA

Where two headings read alike, the source gives them in different places.

AAV-p74 peptide/HLA-B7 complexes on cell surface of JyA2B7 cells, sequence (P61769 21-119): as the sequence (P61769 21-119) above
AAV-p74 peptide/HLA-B7 complexes on cell surface of JyA2B7 cells, sequence (P01889 25-362): as the sequence (P01889 25-362) above

B1: AAV-b-scTCR-BirA (TCR, V domains shown)
Valpha: TQLLEQSPQFLSIQEGENLTVYCNSSSVFSSLQWYRQEPGEGPVLLVTVVTGGEVKKLKRLTFQFGDARKDSSLHITAAQPGDTGLYLCAGKKTNDYKLSFGAGTTVTVRA
Vbeta: ETGVTQTPRHLVMGMTNKESLKCEQHLGHNAMYWYKQSAKKPLELMFVYSLEERVENNSVPSRFSPECPNSSHLFLHLHTLQPEDSALYLCASSQDRVNLAGEQYFGPGTRLTVT
In the case of B1, in assay [1], the binding result is recorded as “recognises”.

B2: AAV-a-AJ31 (TCR, V domains shown)
Valpha: SQQGEEDPQALSIQEGENATMNCSYKTSINNLQWYRQNSGRGLVHLILIRSNEREKHSGRLRVTLDTSKKSSSLLITASRAADTASYFCATLYNARLMFGDGTQLVVKP
Vbeta: NAGVTQTPKFRVLKTGQSMTLLCAQDMNHEYMYWYRQDPGMGLRLIHYSVGEGTTAKGEVPDGYNVSRLKKQNFLLGLESAAPSQTSVYFCASRSGSAGAFFGQGTRLTVV
Consider B2, for which the binding result in assay [1] is reported as “recognises”.

B3: p74-scTCR multimer: PE-conjugated multimer generated from biotinylated AAV-a-AJ31 scTCR-BirA fusion protein (protein)
alpha: B2 Valpha
beta: B2 Vbeta
modifications: left off: things letters cannot carry; a dimerising Fc or GST; small tags and cut ends
notes: PE-conjugated multimer generated from biotinylated AAV-a-AJ31 scTCR-BirA fusion protein
Take B3: the “minimum AAV-p74 peptide loading concentration stained” value in assay [2] (PLE added during loading) stood at 1 µg/mL; in assay [2] (typical conditions), 5 µg/mL. In addition, in assay [2] (cells loaded with 50 μg/ml AAV-p74 peptide, 0.025 μg/test multimer), the “staining of JyA2B7 cells” value was “Specific staining”. Besides, in assay [3], the “staining of lymph node cells and splenocytes” value is “positive staining”. Besides, the “staining of peptide-loaded fibroblasts” value in assay [4] (AAV capsid epitopes 10 ug/ml, 2 hrs, 37° C.) is “positive staining”. The “staining of AAV-transduced fibroblasts” value in assay [4] (AAV vector MOI 5×10^5 or 1×10^6, stained 24 or 48 hours later) is “positive staining”.
